Data set [1] addresses T1, SNAP-tag (control) (UniProt P16455).
T1 sequence: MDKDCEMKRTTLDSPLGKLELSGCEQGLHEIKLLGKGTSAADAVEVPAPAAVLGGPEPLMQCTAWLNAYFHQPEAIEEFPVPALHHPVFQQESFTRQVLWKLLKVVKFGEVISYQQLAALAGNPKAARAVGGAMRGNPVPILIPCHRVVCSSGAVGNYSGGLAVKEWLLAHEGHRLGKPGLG
Kind of data set: pulldown. The conditions noted are these: SNAP-tag control background.

Data set [2] deals with T2, Human estrogen receptor alpha (hERα), full-length, unliganded (Homo sapiens, UniProt P03372 P03372:1-595). The data set can be described thus: EMSA; about half shifted below 15 nM; more than two-fold stronger than monomer. As to conditions: tags: none stated; baculovirus/insect cells; Invitrogen P2187 or EMD4 Biosciences 330655; label: 32P-CTP internal; two AptER-1(53nt) units on three-way junction of H. marismortui 5S RNA. (Mobility shift assays separate free from complexed probe on a gel.)
T2 sequence (P03372 whole entry, one chain of several): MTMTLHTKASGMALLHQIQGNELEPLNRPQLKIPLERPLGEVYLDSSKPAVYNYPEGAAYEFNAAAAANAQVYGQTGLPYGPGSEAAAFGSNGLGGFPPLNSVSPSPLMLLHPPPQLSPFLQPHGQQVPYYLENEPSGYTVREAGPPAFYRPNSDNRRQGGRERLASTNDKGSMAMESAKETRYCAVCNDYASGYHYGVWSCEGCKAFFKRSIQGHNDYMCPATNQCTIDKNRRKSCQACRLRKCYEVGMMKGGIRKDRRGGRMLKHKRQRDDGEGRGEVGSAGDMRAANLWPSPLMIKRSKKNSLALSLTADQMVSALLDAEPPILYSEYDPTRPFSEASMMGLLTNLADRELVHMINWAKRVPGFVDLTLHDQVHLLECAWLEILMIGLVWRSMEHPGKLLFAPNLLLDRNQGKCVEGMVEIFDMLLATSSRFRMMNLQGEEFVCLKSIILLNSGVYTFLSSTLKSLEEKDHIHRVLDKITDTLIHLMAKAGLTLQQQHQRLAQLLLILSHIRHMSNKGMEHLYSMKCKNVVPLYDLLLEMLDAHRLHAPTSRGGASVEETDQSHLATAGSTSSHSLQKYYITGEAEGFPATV

Data set [3] addresses T2, Human estrogen receptor alpha (hERα), …. The data set can be described thus: EMSA; 200 nM ERα; two shifted bands. As to conditions: tags: none stated; baculovirus/insect cells; Invitrogen P2187 or EMD4 Biosciences 330655; label: labeled.
Data set [4] has the same target. The data set can be described thus: EMSA; not competed by AptER-1, -2, -3 or -4; competed by cold ERE. The conditions noted are these: tags: none stated; baculovirus/insect cells; Invitrogen P2187 or EMD4 Biosciences 330655; label: 5'-32P; hairpin with GAAA tetraloop, ERE in stem. As for the experimental part: (§1) No binding activity to RNase inhibitor (control) or DBD & RNase inhibitor was detected. The binding reactions were resolved on the same type of gel as above. […] End-radiolabeled ERE-50mer at 5 nM was mixed with 100× or 400× more concentrated unlabeled competitors ERE-50mer, AptER-1, -2 and -3 RNA or an early generation pool in hERα selection G1 before addition of hERα (40 nM). Only cold ERE-50mer disrupted radioactive ERE-hERα complex.
Whether the aptamers bind to the DNA binding site on the full-length hERα was tested in cross-competition assays using ERE-50mer as a specific competitor. Radiolabeled ERE-50mer was competed with 100× or 400× more concentrated nonradioactive competitors ERE-50mer, AptER-1, -2, -3 or Generation 1 pool of hERα selection G1 (see Example 1). Radiolabeled ERE-50mer at 5 nM was mixed with the competitors before the addition of hERα at 50 nM. The binding reaction was set up as described in the Materials and Methods, and electrophorised in a 4.8% polyacrylamide gel (acrylamide:bis-acrylamide=50:1) in ½ ΔTGB. ERE-50mer served as a positive control of competition, whereas the G1 pool was a negative control. […] This agreed with the result from a second cross-competition assay between radiolabeled AptER-1 and unlabeled ERE-50mer for binding to human ERα (FIG. 9A).

In data set [5] the target is hERα DNA-binding domain (Homo sapiens, UniProt P03372 P03372:180-268). The data set can be described thus: EMSA; 100-400 nM DBD, 5 nM DNA. As to conditions: tags: N-terminal His6; E. coli BL21(DE3); label: 5'-32P; hairpin with GAAA tetraloop, ERE in stem. As for the experimental part:
as §1
Class I aptamers bound with similar affinities to both subtypes of ER, which share the highest homology (96%) in the DBD. This raised the possibility that the target site of Class I aptamers was located within the DBD. Whether the aptamers bind to the DBD was tested in binding assays using a recombinant hERα-DBD. It was expressed as a His₆-tagged fusion protein in E. coli BL21 (DE3) and purified as described in the Materials and Methods. To verify its ERE-binding capability, a DNA EMSA was performed. DNA oligo ERE-50mer contains a GAAA tetra loop, which forces the oligo to form a hairpin. A copy of Xenopus laevis vitellogenin A2 ERE (5′-[…]-3′, SEQ ID NO: 73) was presented in the stem of a hairpin. […] However, in both EMSA (FIG. 11B) and filter-binding assay, no association was detected between AptER-1 and DBD. […]

Data set [6] has as its target T2, Human estrogen receptor alpha (hERα), …. The data set can be described thus: EMSA; 25 nM hERα; no difference from sB63. As to conditions: tags: none stated; baculovirus/insect cells; Invitrogen P2187 or EMD4 Biosciences 330655; label: 32P internal.
Data set [7] has the same target. Kind of data set: EMSA; 10 mM MgCl2, 37 C binding. As to conditions: tags: none stated; baculovirus/insect cells; Invitrogen P2187 or EMD4 Biosciences 330655; label: 32P internal; stem-loop.
For data set [8] the target is unchanged. Kind of data set: filter; same buffer, 37 C; Hill n>1. As to conditions: tags: none stated; baculovirus/insect cells; Invitrogen P2187 or EMD4 Biosciences 330655; label: 32P-CTP internal. The protocol:
The dissociation constant (Kd) of the AptER-1, -2, -3, and -4 were measured using a nitrocellulose filter binding assay. A constant trace amount of [γ-³²P]-CTP incorporated RNA aptamer (˜0.1 nM) was titrated with increasing amounts of the target protein ranging from 5 to 150 nM. The binding activity at each concentration was determined as % binding, by calculating the radioactive signal of the RNA-protein complex retained on the filter as a percentage of the signal at the highest protein concentration (saturated) used. The assays were performed in triplicates for each aptamer. A binding curve was constructed using Sigma Plot 9.0.1, with average binding affinity (% binding) as a function of the protein concentration using a sigmoidal equation (Hill equation, 3 parameters). Apparent Kd was the protein concentration where half of the maximal binding activity was achieved, and were calculated from the data points by using Sigma Plot. […] The first 3 aptamers were isolated in in vitro selection I, and their affinity rank explains the relative abundance in the final selected library. More specifically, it is believed that AptER-1 dominated the final selected pool because it was the strongest binder. AptER-4 was the weakest binder, and would not have been easily identified in the selection I libraries.

Data set [9] deals with Human estrogen receptor beta (hERβ) (Homo sapiens, UniProt Q92731 Q92731:1-530). Kind of data set: EMSA; affinity similar to hERα. The conditions noted are these: tags: none stated; baculovirus/insect cells; EMD4 Biosciences 330657; label: 32P-CTP internal. As for the experimental part: FIGS. 9A-B illustrate the binding specificity of AptER-1, -2 and -3. […] Radiolabeled AptER-1, -2 and -3 (0.1 nM) were incubated with 20 nM hERα, 200 nM hERβ, or 200 μg/ml HeLa nuclear extract (NE). Binding reactions were resolved on a 4.8% polyacrylamide gel (acrylamide:bis-acrylamide=37.5:1) in ¼×TBE buffer. […] Radiolabeled AptER-1, -2 and -3 (0.1 nM) were incubated with 20 nM or 40 nM hERα, or hERβ. Binding reactions were resolved as described above.
Sequence of Human estrogen receptor beta (hERβ) (Q92731 whole entry, one chain of several): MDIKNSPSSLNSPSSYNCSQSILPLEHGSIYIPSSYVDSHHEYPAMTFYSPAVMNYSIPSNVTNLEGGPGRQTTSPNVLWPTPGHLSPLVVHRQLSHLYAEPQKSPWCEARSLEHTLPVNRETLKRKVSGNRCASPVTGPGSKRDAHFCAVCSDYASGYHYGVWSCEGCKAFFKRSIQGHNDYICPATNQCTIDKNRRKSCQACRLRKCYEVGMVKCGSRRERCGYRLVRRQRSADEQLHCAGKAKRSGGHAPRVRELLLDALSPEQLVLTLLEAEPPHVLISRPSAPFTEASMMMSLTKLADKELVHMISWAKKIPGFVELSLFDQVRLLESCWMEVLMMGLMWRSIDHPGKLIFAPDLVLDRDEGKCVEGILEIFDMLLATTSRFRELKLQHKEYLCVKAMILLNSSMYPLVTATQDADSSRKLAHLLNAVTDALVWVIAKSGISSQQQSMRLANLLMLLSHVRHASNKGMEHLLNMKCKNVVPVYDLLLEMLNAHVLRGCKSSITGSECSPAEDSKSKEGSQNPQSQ
To examine the binding specificity of the first set of isolated aptamers, AptER-1, -2 and -3, proteins were presented at high concentrations in ESMA, including hERβ at 200 nM or HeLa nuclear extract at 200 μg/ml, which should allow detection of weak binding activity. […] This was confirmed in a second EMSA using the two ER subtypes at the same concentrations (FIG. 9B). Furthermore, the binding affinities to the two forms were very close, as shown in the EMSA, and this was more carefully compared with the binding curves of AptER-1 (FIG. 8A). […] In the presence of HeLa nuclear extract (FIG. 9A), no specific shifted band could be observed.

For data set [10], the target named is T2, Human estrogen receptor alpha (hERα), …. Kind of data set: EMSA; no binding; method EMSA or filter. As to conditions: tags: none stated; baculovirus/insect cells; Invitrogen P2187 or EMD4 Biosciences 330655.
Data set [11] has the same target. The data set can be described thus: EMSA; 35 nM hERα; fully active. The conditions noted are these: tags: none stated; baculovirus/insect cells; Invitrogen P2187 or EMD4 Biosciences 330655; label: 32P internal; stem-loop.
Data set [12] shares this target. The data set can be described thus: EMSA; 200 nM ERα; one complex; BSA and yeast RNA competitors. As to conditions: tags: none stated; baculovirus/insect cells; Invitrogen P2187 or EMD4 Biosciences 330655; label: labeled.

Sequence of hERα DNA-binding domain (P03372 180-268, one chain of several): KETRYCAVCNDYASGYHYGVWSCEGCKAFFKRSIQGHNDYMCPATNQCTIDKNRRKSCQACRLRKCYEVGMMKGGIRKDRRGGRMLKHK

In data set [1], “GCGUGACGGGCACCGCGAACAAAACGCAAGACAGAGUGCCGACAAGAGCACUACAAGCCCGUCCAUACUCCGGCACCGCGAACAAAACGCAAGACAGAGUGCCGACAAGAGCACUAACAGCCGGAGGCGCUU [AptER-1x2 (expressed dimer)]” displayed a binding signal (fold (control reference)) of 1.

B1: AptER-1x2(138nt) dimer (ssRNA)
RNA: GGAUCCGUGACGGGCACCGCGAACAAAACGCAAGACAGAGUGCCGACAAGAGCACUACAAGCCCGUCCAUACUCCGGCACCGCGAACAAAACGCAAGACAGAGUGCCGACAAGAGCACUAACAGCCGGAGGCGGAUCC
As for B1, in data set [2], the Kd (commonly the concentration at which binding is half-saturated) was under 0.015 µM.

B2: ERL5-5 (ssRNA)
RNA: GGGAGAAUUCAACUGCCAUCUACAGAAGGACCGCGAGGGUAAAAACCACGCACGACAGAGUAUAACAAAACAACUACAAGCUUCUGGACUCGGU
As to B2, the binding result in data set [3] is on record as “binds”.

B3: ERL5-6 (ssRNA)
RNA: GGGAGAAUUCAACUGCCAUCUAAAUGAAAGGACGCACACUACGUGUCCUACAAACACAGAAACAAAAACCGAACUACAAGCUUCUGGACUCGGU
For B3, in data set [3], the binding result is listed as “binds”. As for AGTCAGGTCACAGTGACCTGATCGAAAGATCAGGTCACTGTGACCTGACT (structured_DNA) [ERE-50mer], the binding result in [4] and in data set [5] was “binds” each time.

B4: sB65 (65nt truncated clone B65) (ssRNA)
RNA: GGGCAGAAGCACCGCGAACAAAACGCAAGACAGAGUGCCGACAAGAGCACUACAAGCUUCUGCCC
With B4, in [6], the binding result is “binds”.

B5: AptER-1(65nt) (sB63) (ssRNA)
RNA: GGGCAGAGGCACCGCGAACAAAACGCAAGACAGAGUGCCGACAAGAGCACUACAAGCUUCUGCCC
For B5, the Kd in data set [7] was about 0.03 µM.

B6: AptER-3 (ssRNA)
RNA: GGGAGAAUUCAACUGCCAUCUAGGCGACCCAGGGCCGGGACGCAAAGCAGCCAAAACAGACGGCCCCAGUCAGGGAGUUACUACAAGCUUCUGGACUCGGU
The molecule B6 showed a Kd in data set [8] of 0.03 µM. For the same molecule, the binding result in [9] is “binds”.

B7: AptER-2 (ssRNA)
RNA: GGGAGAAUUCAACUGCCAUCUAGGCACACGCGAGAUAGAGCGAGGCCUCCAAAAAUGGCCACGCCAGGAAGCAAGUACUACAAGCUUCUGGACUCGGU
Molecule B7 registered a Kd in data set [8] of 0.021 µM. In addition, in data set [9], the binding result is reported as “binds”.

Consider GGGCACCGCGAACAAAACGCAAGACAGAGUGCCC (ssRNA) [AptER-1 34nt version], for which the binding result in data set [10] is “no binding”.

B8: AptER-1(53nt) (ssRNA)
RNA: GGGCACCGCGAACAAAACGCAAGACAGAGUGCCGACAAGAGCACUACAAGCCC
On to B8, for which, in [11], the binding result was “binds”.

B9: ERL5-4 (ssRNA)
RNA: GGGAGAAUUCAACUGCCAUCUAACAGCCAAGUAAGCGACAACGACAAUCAAUGACGCGAACAAUCCGAAAGAACUACAAGCUUCUGGACUCGGU
Consider B9, for which the binding result in data set [3] is “binds”.

B10: ERL5-1 (ssRNA)
RNA: GGGAGAAUUCAACUGCCAUCUACAAGCCAAGCAAGCGAGCAAAAAACGCGAGCAUCCGAGCUCCAAGACGUACUACAAGCUUCUGGACUCGGU
With B10, in data set [12], the binding result is listed as “binds”.

These data come from patent publication US20150031754, “APTAMER MODULATORS OF ESTROGEN RECEPTORS” (RESEARCH FOUNDATION OF STATE UNIVERSITY OF NEW YORK AT …, published 2015).
